The target of this assay is C1-100, C-terminally truncated C protein of HPIV3, C-terminally flag-tagged (human parainfluenza virus type 3). The assay can be described thus: co-IP.

Regarding “HPIV3 L protein (viral RNA polymerase), non-tagged (from UniProt P12577 1-2233) (enzyme)”, the L/C ratio was 0.03.

(Values after article PMC2767389.)
